This series can be described thus: soluble on expression in E. coli; label from the status in PepcDB or PDB records.
For “GPGSMTDLRGVLPSKVISTPSGFVECSTHNVRRKAECCEMKAVLNADMEVIDYICVCKHPFTCKSASERQSNGLAAASNARRNAPDGERSGTAPLVIDASSTSMTAQSQHHHHGGQPSAAGAADKEAGVSTLFAVSFYDASRSTPGPSASATAAAVSPKPSAKDGEDREDEKGKDTRANAMRISDSDSDTDDGDSLDNSPSFTAGATPATAATAASFPAAPRERSRYYDSLQNASTGGHAPPAKVCWGCGMTGHEKPACPNALCRTCHQKRGPYGSPHRCTPVVTPSPLIVYPTPSEWRAATQKTAAAAGEPNGMAAVRCVACNEYGHFDCSTVVLPSSYALVASSSPGPAAVPHTLVPTCCFCGVRGHTVFDCQQREHVNPDYFERRNQLFADSVRRGSGITAAGAPFSNSGSSSGYGHPSQQQRQQRFYGSPTGGAPLSSSSFTRYGNGRGGGGSGQRRERDWCDNREQRVGGSQYSNSRREGSAYNNDSYGGDRDHQRRRYESPSFSRAGGGPAPSSSLLMHGRDRCQEGGQRHHEERSRDSYGGSHQRYSEGEHGGAGSRGHGQRSHYSQQSQHSHRHGSSRRGGRLGDSGYYSDDNLF”, the “soluble on expression in E. coli” value is reported as “not soluble”. As to “GPGSMTEYLKDIGRTKPGDPMPPINLGPYDNPLLWNMLDPFGADRGHQRRPMSVSRDFMELHNVPIIFRDQCVHRWVPFHRCLKNLKPVTWGTANCHEFEEAWMICRAYETYRNQLLKTKFMELTKDYTAEDKKFFPSLLHLSVPTYMNSFYWTMAASQRLSGWDERDPANPMTWREPNRALMRAEFSPTNWEQGNLTNATGHKLITDDLVFDMVPGFPLPEDKRPETLY”, the “soluble on expression in E. coli” value was “not soluble”.

As to “GPGSMTKGGSSVAEDAQLRAADTFEEAQTLLDVMLKQFHTMERNRTDPFISKVVIAGELKEDSSRPFSQVFQELIDAATVKSRNPLSEQSCPPSPPSGIFLDYGTHFVGLFEAVDRYVAELLILMDAECKSTEEPIFSDVRVLYLNDDVVPLGGQYVCFVDKIPGVVAQSEKVDVPEDVIAEMVADDVRKLTKLLSLVLSEGVSKRKNFLDNARTSHPTLFPNTSSLKMYVKSDLFLTLDEYHRVFGKLPELVRDVEVNHPVDQPLKY”, the “soluble on expression in E. coli” value is “soluble”. With “GPGSMTKLFHHNITAIHEKFQPPFSVDTFRRIARLVLARVEHMPPPDYYDGSAVWRRVRHYMRQWIKKPDPSEVCMVPLLDLVNHSNRPNCGLRVGPSSVVGGKGAITLYSIARINPGQEICRHYNFAINRPNALFRYGFLPFDLISIVEHDAIDEYLVKNQHMLREESEEVRMKQQKEREEIQKLEKIFQHARSGR”, the “soluble on expression in E. coli” value is on record as “not soluble”. The value for “GPGSMTSKKAAKEKDEYTPQERLTAAALEYKKLEGHNQSSIERMYGALSSPFRVSNKPCEVPRAAVLRCFEEILGKTNNGENGSTDNLAETTVVGRSISGGNNADGRVLLSSDSRFPSVHRCYDAVLQYESCVVEKTLAQHHSLLAGFEARQLQEAESANEVPKAVASGA” was “not soluble”; that for “GPGSMTTSGALFPSLVPGSRGASNKYLVEFRAGKMSLKGTTVTPDKRKGLVYIQQTDDSLIHFCWKDRTSGNVEDDLIIFPDDCEFKRVPQCPSGRVYVLKFKAGSKRLFFWMQEPKTDQDEEHCRKVNEYLNNPPMPGALGASGSSGHELSALGGEGGLQSLLGNMSHSQLMQLIGPAGLGGLGGLGALTGPGLASLLGSSGPPGSSSSSSSRSQSAAVTPSSTTSSTRATPAPSAPAAASATSPSPAPSSGNGASTAASPTQPIQLSDLQSILATMNVPAGPAGGQQVDLASVLTPEIMAPILANADVQERLLPYLPSGESLPQTADEIQNTLTSPQFQQALGMFSAALASGQLGPLMCQFGLPAEAVEAANKGDVEAFAKAMQNNAKPEQKEGDTKDKKDEEEDMSLD” was “soluble”; that for “GPGSMVAKQHFLAAVKMTPARGAAAALSPPQTAEVVGRTAAGGKGCSGSFVDRRLENVMARAREMGWTSPESLIESLKAAQWHSHGKTPAIAEAEAAALPSPHVPAFKPDALSSSSDRHAQPRLPQPRDETPHQARKGAAVSGANSSITECWSGHGPVSQQPHTPHQGADACRAFPSSRTESADSAMRVEATRVLCSGGAAHAGLPSESLLSPPAAESSRVAGTGHAYPPAPLQGHEGLVSSGLTNPLTRLTMPTSATAGAAAAQPLIELEQELVKLRHLVRTLESKQFVHAHQSSAQASELQAQCAELQHQQLAQAKELRLALARLISVGNELEGLRDVKTHLQMQLTASQQESARLRDALLMGETRARDVQ” was “not soluble”.

Regarding “GPGSMVEYKSAAAIAQALFTTHGKDSTTFNRLLRDRIGKRGDRFTEDHPDTFLYIERSKNANVVAYTARFVDAETKKPVPSGVGRDCIIKHDGPVHAYFITLDPQQMEKLRAKGRTSLIDDLNFVQRKMAYGCSGKSFDVASASRECDNPADFKRWMSAFDPYTLSYVALAKYPTLLLTLKPVKDSNGEENDTAVALIAVIGGELSVVKKIYVSSTEPKHFYELPTVNYIEVFGVSVDKGSDTYEKKAP”, the “soluble on expression in E. coli” value was “not soluble”. As for “GPGSMVLSSPVITLRRMVHFSSTPTSLHSRSSTSPLDALVDEVSSFIPATFTSIPQISRQLPPELMERVCDPVCGGLRSLLSRYAERFESKMIGQVHVVRSRLRQRESAAPCRRANAGAEVGYSFAVPSSPSGNAAAAASKSNSVDVQAVFTELQQLFPSYLVPVKALWTTVPEAEEQQVRARVLDALRSPQHRAWLTFHEHPAHCASHSTSADEAELTHVLEHGYVQLRLNPAAGDDRAAAPMPQSPNTRMAGHEVQPYEWYRVARVLPTTATELLFSGELQEQATLLLPPGRDVWHVLLSAPALFELRYAAPTTVDSGQQARVPTLSAEGSSLAPVCVKYDATPPPSLCASVYVRFRLEERFVPPDMAGAREESILRELETLTAERAASACGLSSRQRRRKRKLQRQLAYLRNPTPYFDERVLAQHLFDLLPLRDGVHQSALLGSLPQPAVQAFPQNVTELLQARNDLFQLSDVRHGILVRRADAPKVAQRSIESVTGEEILLHIFSSYSLRSDPQEGTTISRSLPRLPRLVRERLFTMQDIIAEVLLLYPDKVEVLADRSPSISSLSLSSSPHTSEADERALRELRTVRGRRDFLVPFRFVGEWQAKLTEKYTKQQTKDAVKSMRARQRSESSHRRPARY”, the entry is “not soluble”. The value for “GPGSMVRKNMYDGWSYERLRQQRNRAHFLLEDPYRFVTVLLHNGKLYAIDSPCYHASGPLGEGELMDLEDSHTAASVACLRCPWHNILVAIDTGEIVEVHPDTSAVRGKDDGGRELAAPSYPLRPHWEASAGSVRLSRGNVVQRTHKVSLDESNGIMTIEIEDEATMRRHPLPSDAAAGILESGALTMQIFDIKSKGMS” was “soluble”; that for “GPLETDLVAVWDVALSDGVHKIEFEHGTTSGKRVVYVDGKEEIRKEWMFKLVGKETFYVGAAKTKATINIDAISGFAYEYTLEINGKSLKKYMEDRSKTTNTWVLHMDGENFRIVLEKDAMDVWCNGKKLETAGEFVDDGTETHFSIGNHDCYIKAVSSGKRKEGIIHTLIVDNREIPEIAS” was “soluble”; that for “GPLGSAAAATPAVRTVPQYKYAAGVRNPQQHLNAQPQVTMQQPAVHVQGQEPLTASMLASAPPQEQKQMLGERLFPLIQAMHPTLAGKITGMLLEIDNSELLHMLESPESLRSKVDEAVAVLQAHQAKEAAQKAVNSATGVPTV” was “soluble”.

Consider “GPLGSDHVLHVTFPKEWKTSDLYQLFSAFGNIQISWIDDTSAFVSLSQPEQVKIAVNTSKYAESYRIQTYAEYMGRKQEEKQIKRKWTEDSWKEADSKRLN”, for which the “soluble on expression in E. coli” value is “soluble”. As for “GPLGSGEEEPLPPRWSMQVAPNGRTFFIDHASRRTTWIDPRNGRAS”, the entry is “soluble”; as for “GPLGSKVDLFDFELPERLIAQVPLEQRDASRLMVLDKHTGELTDSSFKHIISFFNEGDCLVLNNTRVLPARLFGTKEDTGAKVELLLLKQETGDKWETLAKPAKRVKKGTVVTFGDGRLKAICTEELEHGGRKMEFQYDGIFYEVLESLGEMPLPPYIKEQLDDKERYQTVYSKEIGSAAAPTAGLHFTEEILQQLKDKGVQIEFITLHVGLGTFRPVSADEVEEHNMHAEFYQMSEETAAALNKVRENGGRIISVGTTSTRTLETIAGEHDGQFKASSGWTSIFIYPGYEFKAIDGMITNFHLPKSSLIMLVSALAGRENILRAYNHAVEEEYRFFSFGDAMLII”, “soluble”.

For “GPLGSMDAKARNCLLQHREALEKDIKTSYIMDHMISDGFLTISEEEKVRNEPTQQQRAAMLIKMILKKDNDSYVSFYNALLHEGYKDLAALLHDGIPVVSSS”, the “soluble on expression in E. coli” value is “soluble”. Turning to “GPLGSMTGPSVHDRALGAFLGLAVGDALGATVEFMTKGEIAQQYGIHRKMTGGGWLRLKPGQITDDTEMSLALGRSLAAKGTLDVADICEEFALWLKSRPVDVGNTCRRGIRRYMHEGTTTAPYSEGDAGNGAAMRCLPAALATLGHPADLEPWVLAQARITHNHPLSDAACLTLGRMVHHLIGGRGMKACREEANRLVHQHRDFHFEPYKGQSSAYIVDTMQTVLHYYFVTDTFKSCLIQTVNQGGDADTTGALAGMLAGATYGVDDIPSGWLSKLDMKVEREIRRQVDALLALAGLD”, the “soluble on expression in E. coli” value is given as “soluble”. As for “GPLGSYGDAIPEVKAILEAKNEEELVTFTSRWSAEERKELRTQFQDTTGLEFIAFLKKCIKNGPYEDVMALGWDCNISARVNVIKKAMKNVNDFRAIHDVVLIATPDERLKLAQAYKEKTGNDLLQDFVDQIPLTSAASYLCHLAIRENRTPRGSVASDAEVLKHNLIDADEPDHEAVVRLIITSTADEYKEINHRFEVLTGKSVQEAIETRYADKENARGLCIAHYYNLAPARAVAYAFHSAVETQNDDMAYEQAARITGLFHDLHKFAWVHYACWGVMRDDILSRFQSKEANKVNFRDACLMFWKLAK”, the entry is “soluble”; as for “GQAQTQVKIISQKSDEINEAITRKIDRGSTLLHTETGYLHSRQNMILTVISNRELSKLNQLVMEIDPTAFMIIGKVNEVHGNGFTLPKKHAVKTEK”, “not soluble”; as for “GQELPPGTYRVDIYLNNGYMATRDVTFNTGDSEQGIVPCLTRAQLASMGLNTASVAGMNLLADDACVPLTTMVQDATAHLDVGQQRLNLTIPQAFMSNRARGYIPPELWDPGINA”, “soluble”. Consider “GQQINIHKPPIPERVQTIQGQVLFTKDDIVHGQQVWQSIGGQQIGSVWGHGSYVAPDWTADWLHREATIMLDSWAQEQGHEHYSDLPAEQQAALKERLKKTMRSNTYDAQTGTITLDDLRVDAMRSNAQYYSELFRDGHEHYAIPQNALNDKAAADDMTAFFWWTSWSASTNAPDSDISYTQNWPHEPLIDNAPPTGNI”, for which the “soluble on expression in E. coli” value was “not soluble”. As for “GRAPRNGEKVLVEFVSANPTGPLHVGHARQAALGDAICRLYDASGWDVTREFYYNDAGNQIDNLAISVQARGRGIAPDAPDYPTDGYKGDYIVEIARDFAARKSVQASDGQPVTATGDLDSLDDIRAFAVAYLRREQDLDLQAFGLAFDNYFLESSLYASGRVQETVDTLVAKGHTYEEGGALWLRTTELGTGDDKDRVMRKSEGGYTYFVPDVAYHKVKWERGFHHAVNIQGSDHHGTVARVRAGLQGLEAGIPKDFPAYVLHKMVKVMRGGEEVKISKRAGSYVTMRDLIDWVGRDAVRYFLIQRRADTEFVFDIDLALSKSDENPVYYIQYAHARICTMIGNSGA”, the entry is “not soluble”. The value for “GRPYKLLNGIKLGVYIPQEWHDRLMEIAKEKNLTLSDVCRLAIKEYLDNHDKQKK” was “soluble”; that for “GRYEIRFSGAGGQGLILAGVIMAEAASIYDGKQAVQSQSYGPEARGGASKSEVIISDGPVDYPKATQCDALLALTQEACDKYSADLKEGGVLLVDSDLVTKLPPGNYQTTAFNIINTAKNDVGREIVANIVALGAMVALTGVVSKEAAEKAVLSRVPEAFVELNRKAFQMGFEKALAAKK” was “soluble”. For “GSAASSALKGLIQQFTTITGASESVGKHMLEACNNNLEMAVTMFLDGGG”, the “soluble on expression in E. coli” value was “soluble”.

Values taken from the DeepSol protein solubility set.
